These results are taken from patent US20160362476.

This data set concerns the target T1, phiC31 integrase (Streptomyces phage phiC31) (UniProt Q9T221).
T1 sequence: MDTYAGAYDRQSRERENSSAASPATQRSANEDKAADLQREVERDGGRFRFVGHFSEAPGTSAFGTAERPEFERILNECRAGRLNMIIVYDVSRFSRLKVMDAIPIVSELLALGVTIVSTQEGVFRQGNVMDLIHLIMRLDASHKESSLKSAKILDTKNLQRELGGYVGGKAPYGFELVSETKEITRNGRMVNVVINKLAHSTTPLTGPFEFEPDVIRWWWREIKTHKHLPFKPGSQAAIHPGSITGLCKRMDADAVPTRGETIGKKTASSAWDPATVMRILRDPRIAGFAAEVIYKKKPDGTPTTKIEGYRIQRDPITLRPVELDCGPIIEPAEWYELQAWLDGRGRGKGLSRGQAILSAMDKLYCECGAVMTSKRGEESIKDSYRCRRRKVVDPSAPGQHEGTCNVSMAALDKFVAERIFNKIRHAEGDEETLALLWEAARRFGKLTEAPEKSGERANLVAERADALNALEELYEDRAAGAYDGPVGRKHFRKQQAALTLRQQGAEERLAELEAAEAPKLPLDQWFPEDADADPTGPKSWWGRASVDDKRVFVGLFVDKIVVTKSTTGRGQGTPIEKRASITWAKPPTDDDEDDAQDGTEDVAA
The data set is described as follows: cell_activity.

Where only a bound is given, the exact number is not on record here.

As for “GGTGCCAGGGCGTGCCCTTGGGCTCCCCGGGCGCGTACTGAANTATACAAA (double strand) [phiC31 attB (36 bp, in pAcceptor 5' of promoterless camR)]”, the activity (recombination partner of attP in E. coli TG1, camR selection) is more than 90%.
As to “phiC31 attP (36 bp, used as scFv linker in pDonor)”, the activity (co-integration of pDonor attP with pAcceptor attB in E. coli TG1, camR/ampR ratio versus already co-integrated plasmid) was more than 90%.
